Earlier results, collected in publication PMC4319847.

Columns and labels:
[1] = biological target: SV40 NLS NLS (Simian virus 40) (UniProt P03070)
[2] = biological target: Myc NLS NLS (Homo sapiens) (UniProt P01106)
Myc NLS NLS (Homo sapiens), sequence (P01106 whole entry, looked up): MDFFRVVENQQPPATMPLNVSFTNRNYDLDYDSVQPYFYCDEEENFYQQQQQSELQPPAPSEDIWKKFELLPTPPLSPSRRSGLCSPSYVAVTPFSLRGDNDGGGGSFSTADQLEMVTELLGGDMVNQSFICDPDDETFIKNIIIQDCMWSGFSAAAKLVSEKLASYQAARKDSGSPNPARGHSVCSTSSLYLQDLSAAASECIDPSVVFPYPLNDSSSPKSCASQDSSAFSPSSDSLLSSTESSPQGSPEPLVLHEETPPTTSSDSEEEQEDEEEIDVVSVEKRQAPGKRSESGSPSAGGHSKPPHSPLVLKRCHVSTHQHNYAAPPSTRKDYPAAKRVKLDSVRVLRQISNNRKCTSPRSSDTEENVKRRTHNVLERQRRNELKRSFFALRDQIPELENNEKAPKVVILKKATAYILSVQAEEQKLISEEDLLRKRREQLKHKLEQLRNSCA

yeast importin-α 89-530, sequence (Q02821 89-530): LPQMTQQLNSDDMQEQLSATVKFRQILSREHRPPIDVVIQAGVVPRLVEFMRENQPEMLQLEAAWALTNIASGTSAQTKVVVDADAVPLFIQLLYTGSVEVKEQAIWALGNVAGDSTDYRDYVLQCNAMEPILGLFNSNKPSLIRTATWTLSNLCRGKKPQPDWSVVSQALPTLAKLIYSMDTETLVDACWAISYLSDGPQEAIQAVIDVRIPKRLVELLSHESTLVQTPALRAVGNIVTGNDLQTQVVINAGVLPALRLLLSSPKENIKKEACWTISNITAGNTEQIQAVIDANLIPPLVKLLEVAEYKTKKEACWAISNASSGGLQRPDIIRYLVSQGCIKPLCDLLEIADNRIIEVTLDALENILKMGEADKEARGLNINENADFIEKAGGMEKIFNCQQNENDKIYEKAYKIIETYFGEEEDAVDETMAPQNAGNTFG
SV40 NLS NLS (Simian virus 40), sequence (P03070 whole entry, looked up): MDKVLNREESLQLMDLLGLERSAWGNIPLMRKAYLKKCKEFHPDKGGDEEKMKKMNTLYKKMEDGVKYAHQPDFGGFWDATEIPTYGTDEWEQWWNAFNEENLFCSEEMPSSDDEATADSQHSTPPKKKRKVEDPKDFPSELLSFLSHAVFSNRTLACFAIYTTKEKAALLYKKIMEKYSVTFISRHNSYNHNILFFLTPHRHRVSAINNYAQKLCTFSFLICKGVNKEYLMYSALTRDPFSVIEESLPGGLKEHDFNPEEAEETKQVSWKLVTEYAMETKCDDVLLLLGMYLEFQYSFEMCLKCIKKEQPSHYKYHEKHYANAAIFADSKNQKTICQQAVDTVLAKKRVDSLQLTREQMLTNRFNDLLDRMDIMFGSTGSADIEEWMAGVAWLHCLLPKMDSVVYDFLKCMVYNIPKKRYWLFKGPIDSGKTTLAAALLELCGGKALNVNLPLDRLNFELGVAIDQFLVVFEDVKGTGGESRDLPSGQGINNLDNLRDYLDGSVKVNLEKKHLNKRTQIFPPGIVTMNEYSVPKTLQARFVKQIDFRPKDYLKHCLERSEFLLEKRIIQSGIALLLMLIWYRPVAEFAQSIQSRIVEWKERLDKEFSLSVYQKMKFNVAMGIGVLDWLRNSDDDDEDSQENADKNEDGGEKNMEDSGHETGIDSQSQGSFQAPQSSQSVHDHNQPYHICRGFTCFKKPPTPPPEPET

In the case of “yeast importin-α 89-530 (from UniProt Q02821)”, the Kd [1] is listed as 9 nM and the Kd [2] is listed as 6 nM.
